Measured values: the supplement of paper PMC10567573
± gives the standard deviation.

Test: protein stability index of a GFP-peptide fusion (GPS, HEK-293T) (PSI 1-6); higher = more stable
Conditions: c terminus: a fixed tail appended
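Also: 24-mer peptide tiles fused after GFP, lentivirally expressed, FACS-sorted into six equal bins by GFP/DsRed ratio, decoded by Illumina sequencing, PSI is the read-weighted mean bin number.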

Sequence	protein stability index (treatment: DMSO)	protein stability index (treatment: MLN4924 1 uM, 8 h)
LHNLLLHQEGAKMAVRLAGGLQKM [CTNNB1]	2.02 ± 0.22	2.36 ± 0.26
LHVAAHYGRDSFVRLLLEFKAEVD [ASB7]	2.15 ± 0.14	2.15 ± 0.37
LIFSVQPKSLVRLSLEAVICFKEM [KLHDC2]	1.88 ± 0.17	2.04 ± 0.31
LIGRPGNKTQQVIHIIDFGLAKEY [CSNK1G3]	2.38 ± 0.69	2.4 ± 0.43
LKCDLQERLLCPSLLAGTADGSLR [M1AP]	2.55 ± 0.32	2.5 ± 0.24
LKDLLLQVGRGLRYIHSMSLVHMD [WEE1]	2.64 ± 0.74	2.85 ± 0.69
LKPTLTIIKTEKVDLELFPSPDME [ETS1]	3.4 ± 0.18	3.21 ± 0.32
LKQNFSKSWHDMQTTTAYKKTHET [TPD52L1]	3.6 ± 0.25	3.96 ± 0.24
LKSQPLPLRSSLPISLQATPATPA [TFE3]	3.92 ± 0.14	4 ± 0.26
LKVAAESCKADVVELLLSHADCDR [FEM1B]	3.16 ± 0.19	3.13 ± 0.36
LKYQAPDIDVQLSSELTDSLRTLK [NOP53]	2.79 ± 0.14	3.14 ± 0.45
LLAQARDEAQGACLQQKQVVAEAQ [LRRC45]	4.847 ± 0.003	4.9 ± 0.087
LLDDSKTWWRVRNAANRTGYVPSN [NCK2]	2.93 ± 0.23	2.79 ± 0.15
LLGTSGLKRRFSRLENRYEALAKQ [DAPK3]	3.04 ± 0.31	3.06 ± 0.27
LLHSQARLAELEAQVRKLELERAQ [FBF1]	3.68 ± 0.15	3.5 ± 0.58
LLKQGYNKTLLRLRLRKERVSDVQ [PKD2L1]	2.35 ± 0.28	2.44 ± 0.27
LLLNNANPNLSNRRGSTPLHMAVE [RIPK4]	2.41 ± 0.25	2.73 ± 0.43
LLVSLVTTVVVFVASMVLGECRQM [CLCN6]	3.02 ± 0.73	3 ± 0.94
LMELCRLYHRADVEKVLRRWVDEE [EDARADD]	2.5 ± 0.58	2.4 ± 0.33
LNEEINIASSDSEVEIVGVQEHAR [C18orf25]	5.27 ± 0.1	5.33 ± 0.18
LPGRGRVLSSWSRAFVSIQEEMAE [RHOBTB2]	3.08 ± 0.54	3.25 ± 0.27
LPHLQDSFVDKLLDLMPRLMTSKP [INTS4]	2.16 ± 0.2	2.15 ± 0.24
LPPDMTVVPGDHLLEPEVADGGGA [KCNA3]	5.35 ± 0.39	5.42 ± 0.096

Sequence	protein stability index (treatment: DMSO)	protein stability index (treatment: MLN4924 1 uM, 8 h)
LPPSPRFLVMKGQEGAASKVLGRL [SLC2A12]	3.34 ± 0.28	3.48 ± 0.83
LPTLVPWYFWGETFQNSVFVATFL [SCD]	3.15 ± 0.076	3.09 ± 0.35
LPYQHFSAHFTSGPLVPRLAGMAN [TBX5]	2.7 ± 0.27	2.56 ± 0.11
LQGLSLIVTWFMLLYAQGLLAIQF [SLC19A2]	3.16 ± 0.26	3.16 ± 0.26
LQHAVELKPLCGCHSFAAAADGPT [SMAD6]	3.16 ± 0.21	3.17 ± 0.28
LQLGAAKKPPVTFAEKGELRKSIF [TRIM29]	3.14 ± 0.16	3.25 ± 0.21
LQQERQRLGQRQPPPSEPTQGPEI [DNAJC4]	5.52 ± 0.16	5.16 ± 0.081
LQQQNEDLKARIDQNTVVTRQLSE [MTUS2]	5.1 ± 0.26	5.21 ± 0.083
LQRLKEQQFVIAGVLVEDSNNHHL [ZBED1]	2.83 ± 0.085	3.02 ± 0.27
LQRVLEHRRRNQLIKKKKEELEAK [FAM107A]	3.49 ± 0.29	3.81 ± 0.5
LRDKTVMIIVAISPKYKQDVEGAE [TRAF3IP2]	2.4 ± 0.047	2.97 ± 0.69
LREIAFTRQLHEKTSQLSYYYMGF [ATE1]	2.31 ± 0.35	2.34 ± 0.24
LREINFKIVEFNPMVLKGKIRPDS [GLT8D2]	2.39 ± 0.34	2.41 ± 0.41
LREMCALSFQEELLYWGIAEDHLD [KCNG1]	2.27 ± 0.27	2.26 ± 0.22
LRHLELLDEFARENIDSLYNVNLS [SCNN1D]	2.66 ± 0.092	2.94 ± 0.34
LRRELELLGRERDRVQVERDGLAE [PRPH]	4.6 ± 0.49	4.8 ± 0.36
LRSQLQTLKQQHQQAVEQIAKAEE [CCDC89]	4.66 ± 0.15	4.76 ± 0.11
LRTLFTDLFEKKGYTFDYAYDWVG [CSNK1G1]	2.2 ± 0.21	2.12 ± 0.39
LRVSPAEQPRLEFLMRKCGWFVRE [FBXO33]	1.97 ± 0.12	2.08 ± 0.38
LSDDYEQVRSAAVQLIWVVSQLYP [INTS4]	2.08 ± 0.43	2.13 ± 0.45
LSEEEKEELKAELVQLEDEITTLR [TPD52L1]	5.03 ± 0.17	5.2 ± 0.19
LSEGCRAELAETIVYARVLALHPE [CCDC3]	2.92 ± 1.4	1.83 ± 0.38
